Source: paper PMC12279954 (Nature Communications, 2025)

T1: human haptoglobin Hp1 (residue 1-347) (human, UniProt P00738-2 19-347)
T1 sequence: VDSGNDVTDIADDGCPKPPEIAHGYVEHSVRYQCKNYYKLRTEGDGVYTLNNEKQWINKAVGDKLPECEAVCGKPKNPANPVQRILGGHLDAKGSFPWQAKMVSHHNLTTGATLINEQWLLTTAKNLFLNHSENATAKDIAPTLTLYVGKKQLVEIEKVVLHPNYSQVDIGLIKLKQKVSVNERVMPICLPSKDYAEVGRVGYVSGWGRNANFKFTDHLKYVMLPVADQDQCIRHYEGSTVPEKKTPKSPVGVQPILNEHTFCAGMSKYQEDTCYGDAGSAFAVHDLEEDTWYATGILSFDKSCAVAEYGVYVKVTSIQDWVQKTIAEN

B1: CD163 ectodomain (human CD163, residue 1-1050) (receptor)
chain: not shown
B2: hemoglobin-haptoglobin 1 complex (Hb-Hp1) (complex)
chain 1: not shown
chain 2: not shown
chain 3: T1 sequence
B3: hemoglobin-haptoglobin 2 complex (Hb-Hp2) (complex)
chain 1: not shown
chain 2: not shown
chain 3: VDSGNDVTDIADDGCPKPPEIAHGYVEHSVRYQCKNYYKLRTEGDGVYTLNDKKQWINKAVGDKLPECEADDGCPKPPEIAHGYVEHSVRYQCKNYYKLRTEGDGVYTLNNEKQWINKAVGDKLPECEAVCGKPKNPANPVQRILGGHLDAKGSFPWQAKMVSHHNLTTGATLINEQWLLTTAKNLFLNHSENATAKDIAPTLTLYVGKKQLVEIEKVVLHPNYSQVDIGLIKLKQKVSVNERVMPICLPSKDYAEVGRVGYVSGWGRNANFKFTDHLKYVMLPVADQDQCIRHYEGSTVPEKKTPKSPVGVQPILNEHTFCAGMSKYQEDTCYGDAGSAFAVHDLEEDTWYATGILSFDKSCAVAEYGVYVKVTSIQDWVQKTIAEN
B4: human haptoglobin Hp2 (residue 1-406) (natural protein)
chain: B3 chain 3
B5: human hemoglobin (complex)
chain 1: not shown
chain 2: not shown

Tests used:
SEC [1] = target: the molecule itself; assay: SEC
AUC [2] = target: the molecule itself; assay: AUC
AUC [3] = target: the molecule itself; assay: AUC; remark: listed apart in the source
[4] = target: CD163 ectodomain D292A/D293A (human, UniProt Q86VB7 42-1050, D292A | D293A); assay: pull-down
CD163 ectodomain E359A = CD163 ectodomain E359A (human, UniProt Q86VB7 42-1050, E359A); assay: pull-down
[5] = target: B1; assay: AUC
[6] = target: B1; assay: SEC
SEC [7] = target: the molecule itself; assay: SEC; remark: listed apart in the source
[8] = target: T1, human haptoglobin Hp1 (residue 1-347); assay: SEC
[9] = target: B4; assay: SEC

Sequence of CD163 ectodomain E359A (Q86VB7 42-1050 E359A): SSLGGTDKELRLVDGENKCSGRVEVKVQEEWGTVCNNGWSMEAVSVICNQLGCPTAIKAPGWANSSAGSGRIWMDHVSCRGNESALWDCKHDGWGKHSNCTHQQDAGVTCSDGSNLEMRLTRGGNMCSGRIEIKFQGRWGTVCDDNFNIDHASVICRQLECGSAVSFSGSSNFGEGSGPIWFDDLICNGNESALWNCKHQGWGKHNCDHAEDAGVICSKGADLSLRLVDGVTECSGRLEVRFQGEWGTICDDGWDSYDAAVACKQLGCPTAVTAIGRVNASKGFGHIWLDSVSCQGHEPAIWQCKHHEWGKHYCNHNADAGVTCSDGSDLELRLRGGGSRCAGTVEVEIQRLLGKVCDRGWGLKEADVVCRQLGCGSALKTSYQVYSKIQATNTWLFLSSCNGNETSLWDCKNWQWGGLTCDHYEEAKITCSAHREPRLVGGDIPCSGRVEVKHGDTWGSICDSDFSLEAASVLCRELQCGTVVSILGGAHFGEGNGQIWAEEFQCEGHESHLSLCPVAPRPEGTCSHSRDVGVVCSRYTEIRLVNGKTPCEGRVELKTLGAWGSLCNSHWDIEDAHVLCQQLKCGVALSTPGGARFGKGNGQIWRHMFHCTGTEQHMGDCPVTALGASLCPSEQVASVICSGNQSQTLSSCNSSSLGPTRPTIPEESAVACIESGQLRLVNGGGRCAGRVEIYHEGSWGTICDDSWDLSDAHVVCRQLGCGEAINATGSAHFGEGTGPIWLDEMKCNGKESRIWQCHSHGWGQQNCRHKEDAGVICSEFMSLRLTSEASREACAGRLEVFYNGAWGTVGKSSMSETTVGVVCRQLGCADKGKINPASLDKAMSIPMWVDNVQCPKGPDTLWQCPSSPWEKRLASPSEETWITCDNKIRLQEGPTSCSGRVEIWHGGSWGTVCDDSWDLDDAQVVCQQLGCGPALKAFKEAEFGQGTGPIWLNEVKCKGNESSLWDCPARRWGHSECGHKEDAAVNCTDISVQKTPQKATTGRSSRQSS
Sequence of CD163 ectodomain D292A/D293A (Q86VB7 42-1050 D292A/D293A): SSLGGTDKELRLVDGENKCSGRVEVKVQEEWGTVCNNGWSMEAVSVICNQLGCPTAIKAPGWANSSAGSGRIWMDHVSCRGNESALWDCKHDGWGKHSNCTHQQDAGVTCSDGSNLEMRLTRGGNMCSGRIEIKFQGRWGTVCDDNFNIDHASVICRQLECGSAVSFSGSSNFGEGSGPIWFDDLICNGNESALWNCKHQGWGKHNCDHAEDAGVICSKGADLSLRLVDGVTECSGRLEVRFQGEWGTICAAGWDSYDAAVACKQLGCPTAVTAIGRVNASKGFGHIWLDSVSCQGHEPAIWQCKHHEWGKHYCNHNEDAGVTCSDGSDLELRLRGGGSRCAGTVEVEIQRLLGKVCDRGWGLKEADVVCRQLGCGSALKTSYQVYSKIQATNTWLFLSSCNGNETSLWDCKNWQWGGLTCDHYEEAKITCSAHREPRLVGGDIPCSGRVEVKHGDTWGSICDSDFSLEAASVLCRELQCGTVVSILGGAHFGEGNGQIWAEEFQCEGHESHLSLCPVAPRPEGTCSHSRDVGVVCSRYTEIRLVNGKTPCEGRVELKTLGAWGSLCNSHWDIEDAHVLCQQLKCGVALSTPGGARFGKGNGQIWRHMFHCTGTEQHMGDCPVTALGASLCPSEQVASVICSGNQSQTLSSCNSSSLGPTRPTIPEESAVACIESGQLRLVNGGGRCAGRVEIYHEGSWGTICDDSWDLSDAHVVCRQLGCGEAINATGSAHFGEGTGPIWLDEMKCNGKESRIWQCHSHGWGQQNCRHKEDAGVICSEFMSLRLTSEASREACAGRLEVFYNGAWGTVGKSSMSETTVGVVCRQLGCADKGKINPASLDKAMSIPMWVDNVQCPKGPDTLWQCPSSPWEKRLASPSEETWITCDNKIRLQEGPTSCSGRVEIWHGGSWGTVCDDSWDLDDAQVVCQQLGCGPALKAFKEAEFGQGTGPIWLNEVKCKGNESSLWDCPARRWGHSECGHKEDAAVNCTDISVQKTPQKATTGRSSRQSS

B1
stoichiometry N (SEC [1]): ~3 | stoichiometry N (AUC [2]): 3 | stoichiometry N (AUC [3]): 2

B2
binding result [4]: binds | binding result (CD163 ectodomain E359A): binds | binding result [5]: binds

B3
binding result [6]: binds

B4
binding result (SEC [7]): binds

B5
binding result [8]: binds | binding result [9]: binds
